This note sets out measurements from patent US10533167.

Experiment in all cases: cell-based or functional assay
The target in assay [1] is optoDDX4 (N-terminal IDR of Ddx4 fused to mCherry-labeled Cry2WT) (human; Arabidopsis thaliana) (UniProt Q96524).
For assay [2], the target named is optoFUS (N-terminal IDR of FUS fused to mCherry-labeled Cry2 PHR, Cry2WT) (human; Arabidopsis thaliana) (UniProt Q96524).
For assay [3], the target named is FUSN-Cry2olig (N-terminal IDR of FUS fused to mCherry-labeled Cry2olig, Cry2 E490G) (human; Arabidopsis thaliana) (UniProt Q96524).

In assay [1], “optoDDX4 (N-terminal IDR of Ddx4 fused to mCherry-labeled Cry2WT) (from UniProt Q96524 1-498)” yielded a saturation concentration (Csat) for light-activated phase separation, relative to optoFUS (fold lower than optoFUS) of 2.

In assay [2], “optoFUS (N-terminal IDR of FUS fused to mCherry-labeled Cry2 PHR, Cry2WT) (from UniProt Q96524 1-498)” registered a saturation concentration (Csat) for light-activated phase separation in NIH 3T3 cells of 1.4 µM.

Substance “FUSN-Cry2olig (N-terminal IDR of FUS fused to mCherry-labeled Cry2olig, Cry2 E490G) (from UniProt Q96524 1-498)” returned a saturation concentration for light-activated clustering, relative to optoFUS (fold lower than optoFUS) in assay [3] of 5.
